Source: patent US8470548 (INTRA CELLULAR THERAPIES, dated 2013)

Assays:
[1] = target: T1, third intracellular loop of the 5-HT1A receptor (amino acids 218-345), bait construct (rat, UniProt P04386 1-147; P19327 218-345); experiment: yeast two-hybrid, growth on -LWH medium and X-gal overlay
T1 construct: Yeast two-hybrid bait in the pAS2-derived vector

[2] = target: bait control vector (empty plasmid) (UniProt P04386 1-147); experiment: as above
[3] = target: T2, third intracellular loop of the 5-HT6 receptor (amino acids 209-265), bait construct (rat, UniProt P04386 1-147; P31388 209-265); experiment: as above
T2 construct: Yeast two-hybrid bait in the pAS2-derived vector

[4] = target: T3, third intracellular loop of the rat 5-HT1B receptor (amino acids 226-311), GAL4 DNA-binding domain fusion … (rat, UniProt P04386 1-147; P28564 226-311); experiment: yeast two-hybrid, co-transformation of p11 prey and bait, -LWH medium and X-gal overlay
T3 construct: Yeast two-hybrid bait in a pAS2-derived vector; also called 5-HT1B receptor-bait; 5-HT1B receptors

B1: p11 (rat; prey clone from the pACT2 rat brain cDNA library) (other, UniProt P05943 1-95, looked up)
chain: MPSQMEHAMETMMLTFHRFAGEKNYLTKEDLRVLMEREFPGFLENQKDPLAVDKIMKDLDQCRDGKVGFQSFLSLVAGLIIACNDYFVVHMKQKK
notes: Yeast two-hybrid prey; identified by BLAST search of the prey inserts; also called p11 prey; annexin-II light chain; not shown: fusion partner encoded by the pACT2 prey vector
B1: no binding [1]; no binding [2]; no binding [3]. B1: binds [4].
